Data as given in paper PMC6956826.
pKd: −log10 of the molar value.

Molecular target: SNID2 peptide of the CD3 zeta chain
Experiment: ITC

| Substance | pKd | dH | stoichiometry N |
| --- | --- | --- | --- |
| HIV-2 consensus Nef | 4.92 | -12.3 kcal/mol | 1.08 |
| SIVmac239 Nef core domain harboring the C-terminal region (domain or fragment) |  | -14.2 kcal/mol | 1.05 |
